According to paper PMC4148139 (Biochemistry, 2014):

T1: FADD DD (death domain of Fas-associated protein with death domain, residues 93-184), His-tagged (UniProt Q13158 93-184)
T1 sequence (looked up): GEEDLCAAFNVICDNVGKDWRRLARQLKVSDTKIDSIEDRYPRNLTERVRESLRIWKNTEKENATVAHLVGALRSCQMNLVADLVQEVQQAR

B1: RIP1 DD (death domain of receptor interaction protein kinase 1, residues 583-664), His-tagged (domain or fragment, UniProt Q13546 583-664, looked up)
chain: TDKHLDPIRENLGKHWKNCARKLGFTQSQIDEIDHDYERDGLKEKVYQMLQKWVMREGIKGATVGKLAQALHQCSRIDLLSS
B2: GST-tagged RIP1 DD (domain or fragment, UniProt Q13546 583-664, looked up)
chain: B1 chain

Biological target: T1, FADD DD (death domain of Fas-associated …)
Test: SEC-MALS

Binder	stoichiometry N
B1	~1 RIP1 DD per FADD DD (5:5)
B2	1 GST-RIP1 DD per FADD DD (5:5)
